Source: patent publication US20150141347A1

What was measured:
[1] = molecular target: NY-ESO-1 157-165 peptide … (SEQ ID NO: 2) on HLA-A2 of peptide-pulsed cells; test: cell-based or functional assay
[2] = molecular target: NY-ESO-1 peptide on HLA-A*02:01 (human); test: IFN-gamma ELISA; PBL transduced with 1G4-LY, after one OKT3 stimulation, peptide-pulsed T2 cells; full-length, on cells
[3] = molecular target: … (SEQ ID NO: 23) on HLA-A2 of pulsed T2 cells; test: cell-based or functional assay
[4] = molecular target: … (SEQ ID NO: 28) on HLA-A2 of pulsed T2 cells; test: cell-based or functional assay
[5] = molecular target: … (SEQ ID NO: 26) on HLA-A2 of pulsed T2 cells; test: cell-based or functional assay
[6] = molecular target: … (SEQ ID NO: 25) on HLA-A2 of pulsed T2 cells; test: cell-based or functional assay
[7] = molecular target: … (SEQ ID NO: 27) on HLA-A2 of pulsed T2 cells; test: cell-based or functional assay
[8] = molecular target: … (SEQ ID NO: 24) on HLA-A2 of pulsed T2 cells; test: cell-based or functional assay

wild-type human anti-NY-ESO-1 TCR (1G4) was tested, and the IFN-γ (pg/ml); Patient 1 PBL S1D7, T2 + 0.1 ng/ml peptide [1] was 99 pg/mL, the IFN-γ (pg/ml); Patient 1 PBL S1D7, T2 + 1 ng/ml peptide [1] was 851 pg/mL and the IFN-γ (pg/ml); Patient 1 PBL S1D7, T2 + 10 ng/ml peptide [1] was 1520 pg/mL. It also gave an IFN-γ (pg/ml); Patient 1 PBL S1D7, T2 + 100 ng/ml peptide [1] of 2480 pg/mL, an IFN-γ (pg/ml); Patient 1 PBL S1D7, T2 + 1 µg/ml peptide [1] of 2450 pg/mL and an IFN-γ (pg/ml); Patient 1 expanded PBL S2D9, T2 + 0.1 ng/ml peptide [1] of 1280 pg/mL. For the same substance, the IFN-γ (pg/ml); Patient 1 expanded PBL S2D9, T2 + 1 ng/ml peptide [1] was 6990 pg/mL, the IFN-γ (pg/ml); Patient 1 expanded PBL S2D9, T2 + 10 ng/ml peptide [1] was 13500 pg/mL and the IFN-γ (pg/ml); Patient 1 expanded PBL S2D9, T2 + 100 ng/ml peptide [1] was 19400 pg/mL. The IFN-γ (pg/ml); Patient 1 expanded PBL S2D9, T2 + 1 µg/ml peptide [1] was 26400 pg/mL, the IFN-γ (pg/ml); Patient 2 PBL S1D7, T2 + 0.1 ng/ml peptide [1] was 41 pg/mL and the IFN-γ (pg/ml); Patient 2 PBL S1D7, T2 + 1 ng/ml peptide [1] was 397 pg/mL. It also gave an IFN-γ (pg/ml); Patient 2 PBL S1D7, T2 + 10 ng/ml peptide [1] of 860 pg/mL, an IFN-γ (pg/ml); Patient 2 PBL S1D7, T2 + 100 ng/ml peptide [1] of 1100 pg/mL and an IFN-γ (pg/ml); Patient 2 PBL S1D7, T2 + 1 µg/ml peptide [1] of 1960 pg/mL. It also gave an IFN-γ (pg/ml); Patient 2 expanded PBL S2D9, T2 + 0.1 ng/ml peptide [1] of 747 pg/mL, an IFN-γ (pg/ml); Patient 2 expanded PBL S2D9, T2 + 1 ng/ml peptide [1] of 3550 pg/mL and an IFN-γ (pg/ml); Patient 2 expanded PBL S2D9, T2 + 10 ng/ml peptide [1] of 7350 pg/mL. It also gave an IFN-γ (pg/ml); Patient 2 expanded PBL S2D9, T2 + 100 ng/ml peptide [1] of 12700 pg/mL and an IFN-γ (pg/ml); Patient 2 expanded PBL S2D9, T2 + 1 µg/ml peptide [1] of 19500 pg/mL.

For 1G4-LY TCR, the lowest peptide concentration recognised [2] was under 0.1 ng/mL, the IFN-γ (pg/ml); Donor K PBL, T2 + 1 ng/µL peptide [3] was 1780 pg/mL and the IFN-γ (pg/ml); Donor K PBL, T2 + 10 ng/µL peptide [3] was 3270 pg/mL. It also gave an IFN-γ (pg/ml); Donor L PBL, T2 + 1 ng/µL peptide [3] of 370 pg/mL, an IFN-γ (pg/ml); Donor L PBL, T2 + 10 ng/µL peptide [3] of 1380 pg/mL and an IFN-γ (pg/ml); Donor K PBL, T2 + 1 ng/µL peptide [4] of 0 pg/mL. For the same substance, the IFN-γ (pg/ml); Donor K PBL, T2 + 10 ng/µL peptide [4] was 0 pg/mL, the IFN-γ (pg/ml); Donor L PBL, T2 + 1 ng/µL peptide [4] was 82 pg/mL and the IFN-γ (pg/ml); Donor L PBL, T2 + 10 ng/µL peptide [4] was 97 pg/mL. It also gave an IFN-γ (pg/ml); Donor K PBL, T2 + 1 ng/µL peptide [5] of 884 pg/mL, an IFN-γ (pg/ml); Donor K PBL, T2 + 10 ng/µL peptide [5] of 1110 pg/mL and an IFN-γ (pg/ml); Donor L PBL, T2 + 1 ng/µL peptide [5] of 220 pg/mL. The IFN-γ (pg/ml); Donor L PBL, T2 + 10 ng/µL peptide [5] was 297 pg/mL, the IFN-γ (pg/ml); Donor K PBL, T2 + 1 ng/µL peptide [6] was 0 pg/mL and the IFN-γ (pg/ml); Donor K PBL, T2 + 10 ng/µL peptide [6] was 0 pg/mL. The IFN-γ (pg/ml); Donor L PBL, T2 + 1 ng/µL peptide [6] was 148 pg/mL, the IFN-γ (pg/ml); Donor L PBL, T2 + 10 ng/µL peptide [6] was 294 pg/mL and the IFN-γ (pg/ml); Donor K PBL, T2 + 1 ng/µL peptide [7] was 457 pg/mL. For the same substance, the IFN-γ (pg/ml); Donor K PBL, T2 + 10 ng/µL peptide [7] was 5670 pg/mL, the IFN-γ (pg/ml); Donor L PBL, T2 + 1 ng/µL peptide [7] was 208 pg/mL and the IFN-γ (pg/ml); Donor L PBL, T2 + 10 ng/µL peptide [7] was 1030 pg/mL. For the same substance, the IFN-γ (pg/ml); Donor K PBL, T2 + 1 ng/µL peptide [8] was 0 pg/mL, the IFN-γ (pg/ml); Donor K PBL, T2 + 10 ng/µL peptide [8] was 0 pg/mL and the IFN-γ (pg/ml); Donor L PBL, T2 + 1 ng/µL peptide [8] was 225 pg/mL. It also gave an IFN-γ (pg/ml); Donor L PBL, T2 + 10 ng/µL peptide [8] of 185 pg/mL, an IFN-γ (pg/ml); Donor H after expanding numbers of cells, T2 + 0.1 ng/µl peptide [1] of 89 pg/mL and an IFN-γ (pg/ml); Donor H after expanding numbers of cells, T2 + 1 ng/µl peptide [1] of 512 pg/mL. For the same substance, the IFN-γ (pg/ml); Donor H after expanding numbers of cells, T2 + 10 ng/µl peptide [1] was 2970 pg/mL, the IFN-γ (pg/ml); Donor H after expanding numbers of cells, T2 + 100 ng/µl peptide [1] was 4340 pg/mL and the IFN-γ (pg/ml); Donor H after stimulation with OKT3, T2 + 0.1 ng/µl peptide [1] was 1400 pg/mL. The IFN-γ (pg/ml); Donor H after stimulation with OKT3, T2 + 1 ng/µl peptide [1] was 1710 pg/mL, the IFN-γ (pg/ml); Donor H after stimulation with OKT3, T2 + 10 ng/µl peptide [1] was 3020 pg/mL and the IFN-γ (pg/ml); Donor H after stimulation with OKT3, T2 + 100 ng/µl peptide [1] was 3780 pg/mL. The IFN-γ (pg/ml); Donor K PBL, T2 + 1 ng/µL peptide [1] was 678 pg/mL, the IFN-γ (pg/ml); Donor K PBL, T2 + 10 ng/µL peptide [1] was 3760 pg/mL and the IFN-γ (pg/ml); Donor L PBL, T2 + 1 ng/µL peptide [1] was 184 pg/mL. For the same substance, the IFN-γ (pg/ml); Donor L PBL, T2 + 10 ng/µL peptide [1] was 754 pg/mL, the IFN-γ (pg/ml); Patient 1 PBL S1D7, T2 + 0.1 ng/ml peptide [1] was 0 pg/mL and the IFN-γ (pg/ml); Patient 1 PBL S1D7, T2 + 1 ng/ml peptide [1] was 677 pg/mL. For the same substance, the IFN-γ (pg/ml); Patient 1 PBL S1D7, T2 + 10 ng/ml peptide [1] was 1090 pg/mL, the IFN-γ (pg/ml); Patient 1 PBL S1D7, T2 + 100 ng/ml peptide [1] was 1600 pg/mL and the IFN-γ (pg/ml); Patient 1 PBL S1D7, T2 + 1 µg/ml peptide [1] was 2170 pg/mL. The IFN-γ (pg/ml); Patient 1 expanded PBL S2D9, T2 + 0.1 ng/ml peptide [1] was 1330 pg/mL, the IFN-γ (pg/ml); Patient 1 expanded PBL S2D9, T2 + 1 ng/ml peptide [1] was 7260 pg/mL and the IFN-γ (pg/ml); Patient 1 expanded PBL S2D9, T2 + 10 ng/ml peptide [1] was 16200 pg/mL. For the same substance, the IFN-γ (pg/ml); Patient 1 expanded PBL S2D9, T2 + 100 ng/ml peptide [1] was 21600 pg/mL, the IFN-γ (pg/ml); Patient 1 expanded PBL S2D9, T2 + 1 µg/ml peptide [1] was 30600 pg/mL and the IFN-γ (pg/ml); Patient 2 PBL S1D7, T2 + 0.1 ng/ml peptide [1] was 40 pg/mL. The IFN-γ (pg/ml); Patient 2 PBL S1D7, T2 + 1 ng/ml peptide [1] was 291 pg/mL, the IFN-γ (pg/ml); Patient 2 PBL S1D7, T2 + 10 ng/ml peptide [1] was 879 pg/mL and the IFN-γ (pg/ml); Patient 2 PBL S1D7, T2 + 100 ng/ml peptide [1] was 1280 pg/mL. It also gave an IFN-γ (pg/ml); Patient 2 PBL S1D7, T2 + 1 µg/ml peptide [1] of 2440 pg/mL, an IFN-γ (pg/ml); Patient 2 expanded PBL S2D9, T2 + 0.1 ng/ml peptide [1] of 662 pg/mL and an IFN-γ (pg/ml); Patient 2 expanded PBL S2D9, T2 + 1 ng/ml peptide [1] of 2500 pg/mL. For the same substance, the IFN-γ (pg/ml); Patient 2 expanded PBL S2D9, T2 + 10 ng/ml peptide [1] was 6800 pg/mL, the IFN-γ (pg/ml); Patient 2 expanded PBL S2D9, T2 + 100 ng/ml peptide [1] was 10600 pg/mL and the IFN-γ (pg/ml); Patient 2 expanded PBL S2D9, T2 + 1 µg/ml peptide [1] was 19400 pg/mL. The lowest peptide concentration on T2 cells that was recognized (IFN-γ) [1] was 0.1 ng/mL.
